The source of these data is patent publication US20230242620A1.

Experiment [1] concerns the target analytical polyclonal antibody generated in Example 2. The experiment can be described thus: SPR Biacore T100, polyclonal immobilized, 500 nM ISV, RU at end of injection.
Experiment [2] addresses serum sample IHUS#B09032311A1. The experiment can be described thus: ECL drug displacement assay, variant as competitor against labelled SEQ ID NO:1.
Experiment [3] concerns the target serum sample IHUS#B09032311A20 (pre-existing antibodies against ISV). The description is as above.
Experiment [4] concerns the target serum sample IHUS#B09032311A3 (pre-existing antibodies against ISV). The experiment is described as above.
The target in experiment [5] is affinity purified antibody IHuP#002-001-ABL-08. As to the kind of experiment: ECL bridging/competition assay, 10 ug/ml ISV, 400 ng/ml antibody, labelled SEQ ID NO:1.

B1: Nb6.2 (VHH)
VHH: EVQLVESGGGLVQPGGSLRLSCIASGLPFSTKSMGWFRQAPGKEREFVARISPGGTSRYYGDFVKGRFAISRDNAKNTTWLQMNSLKAEDTAVYYCASGERSTYIGSNYYRTNEYDYWGTGTQVTVSS
In experiment [1], B1 showed a Binding (RU) of 39 RU.

B2: Nb4.1 (VHH)
VHH: EVQLVESGGGLVQPGGSLRLSCAASGSVFKINVMAWYRQAPGKGRELVAGIISGGSTSYADSVKGRFTISRDNAKNTLYLQMNSLRPEDTAVYYCAFITTESDYDLGRRYWGQGTLVTVSS
In experiment [1], B2 came in with a Binding (RU) of 51 RU.

B3: Nb3.10 (VHH)
VHH: EVQLVESGGGLVQAGGSLRLSCAASRSIGRLDRMGWYRHRPGEPRELVATITGGSSINYGDSVKGRFTISIDNSKNTVYLQMNSLRPEDTAVYYCNFNKYVTSRDTWGQGTLVTVSS
Take B3: the Binding (RU) in experiment [1] stood at 91 RU.

B4: Nb3.13 (VHH)
VHH: EVQLVESGGGLVQPGGSLRLSCAASRSIGRLDRMGWYRHRPGEPRELVATITGGSSINYGDSVKGRFTISIDNSKNTVYLQMNSLRPEDTAVYYCNFNKYVTSRDTWGQGTQVTVSS
Regarding B4, in experiment [1], the Binding (RU) was found to be 90 RU.

B5: Nb3.11 (VHH)
VHH: EVQLVESGGGLVQPGGSLRLSCAASRSIGRLDRMGWYRHRPGEPRELVATITGGSSINYGDSVKGRFTISIDNSKNTVYLQMNSLKPEDTAVYYCNFNKYVTSRDTWGQGTLVTVSS
Regarding B5, the Binding (RU) in experiment [1] was 88 RU.

B6: Nb3.14 (VHH)
VHH: EVQLVESGGGLVQPGGSLRLSCAASRSIGRLDRMGWYRHRPGEPRELVATITGGSSINYGDSVKGRFTISIDNSKNTVYLQMNSLRPEDTAVYYCNFNKYVTSRDTWGQGTLVQVSS
Take B6: the Binding (RU) in experiment [1] is 79 RU.

B7: Nb3.12 (VHH)
VHH: EVQLVESGGGLVQAGGSLRLSCAASRSIGRLDRMGWYRHRPGEPRELVATITGGSSINYGDSVKGRFTISIDNSKNTVYLQMNSLRPEDTAVYYCNFNKYVTSRDTWGQGTQVTVSS
The molecule B7 displayed a Binding (RU) in experiment [1] of 86 RU.

B8: Nb3.1 (VHH)
VHH: EVQLVESGGGLVQAGGSLRLSCAASRSIGRLDRMGWYRHRTGEPRELVATITGGSSINYGDFVKGRFTISIDNAKNTVYLQMNNLKPEDTAVYYCNFNKYVTSRDTWGQGTQVTVSS
In turn, B8 yielded a Binding (RU) in experiment [1] of 2 RU.

B9: Nb3.15 (VHH)
VHH: EVQLVESGGGSVQPGGSLRLSCAASRSIGRLDRMGWYRHRPGEPRELVATITGGSSINYGDSVKGRFTISIDNSKNTVYLQMNSLRPEDTAVYYCNFNKYVTSRDTWGQGTLVTVSS
Take B9: the Binding (RU) in experiment [1] came to 22 RU.

B10: Example 1C: (A14P, R39Q, K83R, T91Y, Q108L)-QA (VHH)
VHH: EVQLVESGGGLVQPGGSLRLSCAASGRTFNNYAMGWFRQAPGKEREFVAAITRSGVRSGVSAIYGDSVKDRFTISRDNAKNTLYLQMNSLRPEDTAVYYCAASAIGSGALRRFEYDYSGQGTLVTVSS
Consider B10, for which the % reduction is 3% in experiment [2], 18% in experiment [3], 18% in experiment [4] and 58.6% in experiment [5]. Further, the ECLU confirmatory assay in experiment [2] is 60 ECLU; in experiment [3] it was 15100 ECLU; in experiment [4] it was 1810 ECLU; in experiment [5], 1210 ECLU.

B11: Example 1C: (A14P, K83R, Q108L) (VHH)
VHH: EVQLVESGGGLVQPGGSLRLSCAASGRTFNNYAMGWFRRAPGKEREFVAAITRSGVRSGVSAIYGDSVKDRFTISRDNAKNTLYLQMNSLRPEDTAVYTCAASAIGSGALRRFEYDYSGQGTLVTVSS
Turning to B11, the % reduction in experiment [2] was 8%; in experiment [3], 97%; in experiment [4], 93%; in experiment [5] it was 89.1%. Besides, the ECLU confirmatory assay worked out at 57 ECLU in experiment [2], 628 ECLU in experiment [3], 156 ECLU in experiment [4] and 319 ECLU in experiment [5].

B12: Example 1c: (A14P, R39Q, K83R,T91Y, Q108L) (VHH)
VHH: EVQLVESGGGLVQPGGSLRLSCAASGRTFNNYAMGWFRQAPGKEREFVAAITRSGVRSGVSAIYGDSVKDRFTISRDNAKNTLYLQMNSLRPEDTAVYYCAASAIGSGALRRFEYDYSGQGTLVTVSS
Regarding B12, the % reduction worked out at 6% in experiment [2], 97% in experiment [3], 90% in experiment [4] and 91.4% in experiment [5]. For the same molecule, the ECLU confirmatory assay worked out at 58 ECLU in experiment [2], 570 ECLU in experiment [3], 228 ECLU in experiment [4] and 251 ECLU in experiment [5].

B13: Example 1C: wildtype (VHH)
VHH: EVQLVESGGGLVQAGGSLRLSCAASGRTFNNYAMGWFRRAPGKEREFVAAITRSGVRSGVSAIYGDSVKDRFTISRDNAKNTLYLQMNSLKPEDTAVYTCAASAIGSGALRRFEYDYSGQGTQVTVSS
Regarding B13, the % reduction in experiment [2] is 4%; in experiment [3] it was 53%; in experiment [4] it was 20%; in experiment [5], 7.3%. Also, the ECLU confirmatory assay in experiment [2] was 60 ECLU; in experiment [3], 8680 ECLU; in experiment [4], 1780 ECLU; in experiment [5], 2710 ECLU.

B14: Example 1C: (A14P) (VHH)
VHH: EVQLVESGGGLVQPGGSLRLSCAASGRTFNNYAMGWFRRAPGKEREFVAAITRSGVRSGVSAIYGDSVKDRFTISRDNAKNTLYLQMNSLKPEDTAVYTCAASAIGSGALRRFEYDYSGQGTQVTVSS
Turning to B14, the % reduction in experiment [2] came to 10%; in experiment [3], 96%; in experiment [4] it was 91%; in experiment [5], 90.8%. Further, the ECLU confirmatory assay was determined as 56 ECLU in experiment [2], 668 ECLU in experiment [3], 205 ECLU in experiment [4] and 268 ECLU in experiment [5].

B15: Example 1C: (A14P, R39Q, K83R, T91Y, Q108L)-3A (VHH)
VHH: EVQLVESGGGLVQPGGSLRLSCAASGRTFNNYAMGWFRQAPGKEREFVAAITRSGVRSGVSAIYGDSVKDRFTISRDNAKNTLYLQMNSLRPEDTAVYYCAASAIGSGALRRFEYDYSGQGTLVTVSS
For B15, the % reduction in experiment [2] was 0%; in experiment [3], 18%; in experiment [4], 13%; in experiment [5] it was -13.1%. Also, the ECLU confirmatory assay in experiment [2] is 62 ECLU; in experiment [3] it was 15200 ECLU; in experiment [4] it was 1930 ECLU; in experiment [5], 3300 ECLU.

B16: Example 1C: (Q108L) (VHH)
VHH: EVQLVESGGGLVQAGGSLRLSCAASGRTFNNYAMGWFRRAPGKEREFVAAITRSGVRSGVSAIYGDSVKDRFTISRDNAKNTLYLQMNSLKPEDTAVYTCAASAIGSGALRRFEYDYSGQGTLVTVSS
Consider B16, for which the % reduction in experiment [2] worked out at 5%; in experiment [3] it was 62%; in experiment [4], 31%; in experiment [5], 13.2%. The ECLU confirmatory assay in experiment [2] was 59 ECLU; in experiment [3], 6990 ECLU; in experiment [4], 1530 ECLU; in experiment [5] it was 2530 ECLU.

B17: Example 1C: (K83R) (VHH)
VHH: EVQLVESGGGLVQAGGSLRLSCAASGRTFNNYAMGWFRRAPGKEREFVAAITRSGVRSGVSAIYGDSVKDRFTISRDNAKNTLYLQMNSLRPEDTAVYTCAASAIGSGALRRFEYDYSGQGTQVTVSS
For the molecule B17, the % reduction in experiment [2] was 1%; in experiment [3], 63%; in experiment [4], 37%; in experiment [5], 15.7%. Moreover, the ECLU confirmatory assay stood at 62 ECLU in experiment [2], 6910 ECLU in experiment [3], 1400 ECLU in experiment [4] and 2460 ECLU in experiment [5].

B18: Nb6.5 (VHH)
VHH: EVQLLESGGGLVQPGGSLRLSCAASGLPFSTKSMGWFRQAPGKGREFVSRISPGGTSRYYGDFVKGRFTISRDNSKNTLYLQMNSLRAEDTAVYYCASGERSTYIGSNYYRTNEYDYWGQGTLVTVSS
With B18, the Binding (RU) in experiment [1] is 66 RU.
